Laboratory results: article PMC4280530 (2014)

B1: anti-Cry1Ac nanobody Nb61 (VHH)
VHH: QVQLQESGGGSVQAGGSLRLSCEASENTYNSVYMAWFRQAPEKEREGVAVLSTGGGRTYYTDSVKGRFTISRDNAKNMVYLQMNSLKPDDTAMYYCAATYTGDSYGPSLYYLTPGRYEYWGQGTQVTVSS
B2: anti-Cry1Ac nanobody Nb58 (VHH)
VHH: QVQLQESGGGLVQPGGSLRLSCTASGFTFSSYEMDWFRRAPGKELEWVAGITSGGEGTSYRNSVKGRFTISRDNAKNTLYLHLNSLKNEDTAMYYCAKDRRALGEVGQGTQVTVSS
B3: anti-Cry1Ac nanobody Nb59 (VHH)
VHH: QVQLQESGGGLVQPGGSLRLSCAASGFTFRDYYMTWVRQAPGQGLEWVSSISFGGGRTYYADSVKGRFTISRDNPENTLYLQLSNLKTEDTAMYYCARGRPNADYDRRGQGTQVTVSS
B4: anti-Cry1Ac nanobody Nb44 (VHH)
VHH: QVQLQESGGGSVQAGGSLRLSCATSGLTYSARITWFRQAPEKEREGVATFSTGSGSTGYADSVKGRFTISQDNAKNTLYLQMNNLKPEDTAMYYCAADTSTSWRDIVLVARYKYWGQGTQVTVSS

These binders were tested against T1, Bacillus thuringiensis (Bt) Cry1Ac toxin (Bacillus thuringiensis, UniProt P05068 1-1178) (assay: SPR).
T1 sequence (P05068 whole entry): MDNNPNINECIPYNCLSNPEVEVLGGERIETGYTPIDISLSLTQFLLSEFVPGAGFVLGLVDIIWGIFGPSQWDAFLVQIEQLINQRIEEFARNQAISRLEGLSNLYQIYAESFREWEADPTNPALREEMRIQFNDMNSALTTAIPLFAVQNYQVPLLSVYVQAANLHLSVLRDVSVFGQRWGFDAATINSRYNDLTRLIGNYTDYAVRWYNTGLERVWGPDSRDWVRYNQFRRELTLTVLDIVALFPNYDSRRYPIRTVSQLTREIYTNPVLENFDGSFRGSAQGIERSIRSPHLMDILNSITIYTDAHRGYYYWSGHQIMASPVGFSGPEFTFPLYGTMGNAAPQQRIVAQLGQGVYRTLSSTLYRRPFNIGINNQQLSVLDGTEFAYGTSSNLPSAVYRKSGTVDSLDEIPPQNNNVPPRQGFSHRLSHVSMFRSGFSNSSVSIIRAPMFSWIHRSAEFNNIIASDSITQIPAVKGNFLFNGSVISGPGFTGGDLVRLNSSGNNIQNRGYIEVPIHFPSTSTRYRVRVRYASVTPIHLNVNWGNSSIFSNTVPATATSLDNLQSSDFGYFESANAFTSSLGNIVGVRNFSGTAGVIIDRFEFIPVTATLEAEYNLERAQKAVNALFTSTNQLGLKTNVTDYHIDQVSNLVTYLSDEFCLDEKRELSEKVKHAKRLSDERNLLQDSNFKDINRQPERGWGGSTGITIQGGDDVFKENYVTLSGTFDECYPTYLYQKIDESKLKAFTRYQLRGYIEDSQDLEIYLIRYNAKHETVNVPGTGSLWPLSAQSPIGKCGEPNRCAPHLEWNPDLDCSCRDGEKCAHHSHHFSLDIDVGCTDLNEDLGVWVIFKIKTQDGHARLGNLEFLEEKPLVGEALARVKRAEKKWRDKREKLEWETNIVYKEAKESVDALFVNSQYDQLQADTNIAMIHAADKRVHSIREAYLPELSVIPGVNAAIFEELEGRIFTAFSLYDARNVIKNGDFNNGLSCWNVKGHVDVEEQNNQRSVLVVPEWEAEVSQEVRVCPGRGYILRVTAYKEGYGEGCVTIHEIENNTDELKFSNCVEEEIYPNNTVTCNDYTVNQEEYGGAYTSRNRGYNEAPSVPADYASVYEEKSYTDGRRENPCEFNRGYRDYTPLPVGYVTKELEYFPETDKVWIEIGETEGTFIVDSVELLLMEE

Q: For B1, which Kd is on record?
A: The Kd was 0.0609 µM.

Q: How did the Kd turn out when B2 was run?
A: The Kd was 0.0232 µM.

Q: With B3 as the binder, how does the Kd read?
A: The Kd was 0.018 µM.

Q: Which Kd does the source give for B4 here?
A: Its Kd is 0.00689 µM.

Target: T1, Bacillus thuringiensis (Bt) Cry1Ac toxin
Assay: SPR
Remark: another data set of the same source

Q: Which koff does the source give for B1 here?
A: The koff was 0.00084 s⁻¹.

Q: Which koff does the source give for B2 here?
A: Its koff is 0.00151 s⁻¹.

Q: Which koff does the source give for B3 here?
A: Its koff is 0.00178 s⁻¹.

Q: Which koff does the source give for B4 here?
A: Its koff is 0.0014 s⁻¹.
